The source of these data is patent publication US20200291135A1 (INSPIRNA, published 2020).

Test [1] deals with T1, human MERTK expressed on cells (SKMEL5 melanoma cells; in vitro differentiated M2 macrophages) (human, UniProt Q12866 21-999).
T1 construct: Endogenous MERTK of human cells; also called surface MERTK
T1 sequence: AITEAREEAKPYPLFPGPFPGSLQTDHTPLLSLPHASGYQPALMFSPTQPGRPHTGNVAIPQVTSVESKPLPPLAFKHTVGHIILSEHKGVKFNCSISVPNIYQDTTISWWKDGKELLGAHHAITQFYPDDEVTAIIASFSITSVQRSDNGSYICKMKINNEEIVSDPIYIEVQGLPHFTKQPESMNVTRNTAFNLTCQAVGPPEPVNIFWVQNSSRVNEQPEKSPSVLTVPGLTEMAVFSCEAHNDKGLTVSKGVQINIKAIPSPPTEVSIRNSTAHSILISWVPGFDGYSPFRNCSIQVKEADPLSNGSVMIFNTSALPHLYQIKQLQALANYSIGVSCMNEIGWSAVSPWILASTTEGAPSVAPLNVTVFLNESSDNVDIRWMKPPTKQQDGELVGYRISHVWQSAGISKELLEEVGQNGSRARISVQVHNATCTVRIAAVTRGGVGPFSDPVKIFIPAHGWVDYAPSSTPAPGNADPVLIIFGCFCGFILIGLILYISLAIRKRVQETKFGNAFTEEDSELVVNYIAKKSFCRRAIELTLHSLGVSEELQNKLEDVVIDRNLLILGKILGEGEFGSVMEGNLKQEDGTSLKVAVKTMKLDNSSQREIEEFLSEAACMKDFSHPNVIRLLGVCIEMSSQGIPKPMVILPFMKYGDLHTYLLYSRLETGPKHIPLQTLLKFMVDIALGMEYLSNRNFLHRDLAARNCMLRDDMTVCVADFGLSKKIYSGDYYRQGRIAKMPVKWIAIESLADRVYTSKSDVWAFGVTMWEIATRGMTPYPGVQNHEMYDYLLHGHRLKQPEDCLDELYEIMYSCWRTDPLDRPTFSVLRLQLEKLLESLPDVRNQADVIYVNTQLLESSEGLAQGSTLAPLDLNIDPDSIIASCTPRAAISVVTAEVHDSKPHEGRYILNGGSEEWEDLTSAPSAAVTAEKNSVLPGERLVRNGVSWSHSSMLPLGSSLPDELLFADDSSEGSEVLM
In words: flow cytometry, APC-labeled z10 on MERTK-expressing SKMEL5 melanoma cells. How it is done:
SKMEL5 cells were harvested with trypsin, washed twice with PBS and strained through a 70 µm filter. 50,000 cells were resuspended in 60 μL FACS buffer (2% BSA, 10 mM EDTA, 25 mM HEPES, 0.1% sodium azide in Ca/Mg-free PBS) containing 10% human AB serum (Sigma, H4522). […] The APC signals from live single cells were analyzed in FlowJo and the MFIs were plotted with GraphPad Prism. Single color control samples were used to create a compensation matrix.
(In general: A flow cytometer gives signals particle by particle.)

Test [2] addresses T2, rhMer/Fc Chimera (recombinant human MERTK extracellular domain conjugated to an IgG Fc domain) (human, UniProt Q12866 21-505).
T2 construct: extracellular domain; also called hMER recombinant protein; Mer-Fc conjugate; not shown: IgG Fc domain
T2 sequence (looked up): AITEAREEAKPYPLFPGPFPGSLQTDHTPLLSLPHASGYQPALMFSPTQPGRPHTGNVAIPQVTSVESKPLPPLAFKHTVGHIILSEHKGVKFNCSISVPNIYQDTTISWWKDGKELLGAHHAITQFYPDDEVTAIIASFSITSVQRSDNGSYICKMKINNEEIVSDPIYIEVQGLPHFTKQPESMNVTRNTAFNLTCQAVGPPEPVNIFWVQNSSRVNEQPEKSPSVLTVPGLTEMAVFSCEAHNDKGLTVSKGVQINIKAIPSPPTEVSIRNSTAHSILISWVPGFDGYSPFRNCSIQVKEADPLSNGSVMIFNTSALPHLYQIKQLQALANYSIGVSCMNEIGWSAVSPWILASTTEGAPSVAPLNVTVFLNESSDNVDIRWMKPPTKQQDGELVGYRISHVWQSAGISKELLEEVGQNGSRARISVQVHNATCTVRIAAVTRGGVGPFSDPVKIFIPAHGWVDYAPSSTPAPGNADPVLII
In words: SPR, avidity format: rhMer/Fc Chimera immobilised on CM5 chip, antibody as analyte, 1:1 fit. As to the method: With respect to avidity and affinity measurements using SPR, the protocols below were used.
The activator was prepared with a mixture of 400 mM EDC and 100 mM NHS immediately prior to injection. The CM5 sensor chip was activated for 420 s with the mixture. […] The chip was deactivated by 1 M ethanolamine-HCl. […] 8 concentrations (0.3125, 0.625, 1.25, 2.5, 5, 10, 20 and 40 nM) of the antibodies and running buffer were injected at a flow rate of 30 μL/min for an association phase of 240 s, followed by 4800 s dissociation. 10 mM glycine pH 1.5 as regeneration buffer was injected following every dissociation phase. The chip was regenerated with 10 mM glycine pH 1.5. One surface channel without capturing ligand was used as control surface for reference subtraction. Final data of each interaction was deducted from reference channel and buffer channel data. […] A molecular weight of 150 kDa was used to calculate the molar concentration of the antibodies.
A general note: SPR reads the build-up and loss of mass on a sensor chip optically.

B1: z10 antibody (antibody, human IgG1, kappa, V domains shown)
VH: QVQLVQSGAEVKKPGASVKVSCKASGYTFTNYGMNWVRQAPGQGLEWMGWINTYTGEPTYADDFKGRVTFTTDTSTSTAYMELRSLRSDDMAVYYCARKSTVVSRYFDVWGQGTTVTVSS
VL: DIQMTQSPSFLSASVGDRVTITCKASQDVGDAVTWYQQKPGKAPKLLIYWASTRHTGVPDRFSGSGSGTDFTLTISSLQPEDFATYYCQQYRSYPLTFGQGTKLEIKR
notes: also called MERTK (z10) antibody
As to B1, in test [1], the midpoint of the response, the EC50, lay at 6.7 nM. The Kd in test [2] stood at 0.00574 nM.

The EC50 is the concentration giving half of the maximal effect. Higher therefore signals a less potent agent.
